Results reported in IntAct's records for PubMed 16820411.

B1: Intercellular adhesion molecule 5 (Homo sapiens), Q9UMF0 (parent)
chain: MPGPSPGLRRALLGLWAALGLGLFGLSAVSQEPFWADLQPRVAFVERGGSLWLNCSTNCPRPERGGLETSLRRNGTQRGLRWLARQLVDIREPETQPVCFFRCARRTLQARGLIRTFQRPDRVELMPLPPWQPVGENFTLSCRVPGAGPRASLTLTLLRGAQELIRRSFAGEPPRARGAVLTATVLARREDHGANFSCRAELDLRPHGLGLFENSSAPRELRTFSLSPDAPRLAAPRLLEVGSERPVSCTLDGLFPASEARVYLALGDQNLSPDVTLEGDAFVATATATASAEQEGARQLVCNVTLGGENRETRENVTIYSFPAPLLTLSEPSVSEGQMVTVTCAAGAQALVTLEGVPAAVPGQPAQLQLNATENDDRRSFFCDATLDVDGETLIKNRSAELRVLYAPRLDDSDCPRSWTWPEGPEQTLRCEARGNPEPSVHCARSDGGAVLALGLLGPVTRALSGTYRCKAANDQGEAVKDVTLTVEYAPALDSVGCPERITWLEGTEASLSCVAHGVPPPDVICVRSGELGAVIEGLLRVAREHAGTYRCEATNPRGSAAKNVAVTVEYGPRFEEPSCPSNWTWVEGSGRLFSCEVDGKPQPSVKCVGSGGATEGVLLPLAPPDPSPRAPRIPRVLAPGIYVCNATNRHGSVAKTVVVSAESPPEMDESTCPSHQTWLEGAEASALACAARGRPSPGVRCSREGIPWPEQQRVSREDAGTYHCVATNAHGTDSRTVTVGVEYRPVVAELAASPPGGVRPGGNFTLTCRAEAWPPAQISWRAPPGALNIGLSSNNSTLSVAGAMGSHGGEYECAATNAHGRHARRITVRVAGPWLWVAVGGAAGGAALLAAGAGLAFYVQSTACKKGEYNVQEAESSGEAVCLNGAGGGAGGAAGAEGGPEAAGGAAESPAEGEVFAIQLTSA

Variants of: B1
Details: with actn1_chick ACTN1, P05094
Chain of actn1_chick ACTN1, P05094 (P05094 whole entry): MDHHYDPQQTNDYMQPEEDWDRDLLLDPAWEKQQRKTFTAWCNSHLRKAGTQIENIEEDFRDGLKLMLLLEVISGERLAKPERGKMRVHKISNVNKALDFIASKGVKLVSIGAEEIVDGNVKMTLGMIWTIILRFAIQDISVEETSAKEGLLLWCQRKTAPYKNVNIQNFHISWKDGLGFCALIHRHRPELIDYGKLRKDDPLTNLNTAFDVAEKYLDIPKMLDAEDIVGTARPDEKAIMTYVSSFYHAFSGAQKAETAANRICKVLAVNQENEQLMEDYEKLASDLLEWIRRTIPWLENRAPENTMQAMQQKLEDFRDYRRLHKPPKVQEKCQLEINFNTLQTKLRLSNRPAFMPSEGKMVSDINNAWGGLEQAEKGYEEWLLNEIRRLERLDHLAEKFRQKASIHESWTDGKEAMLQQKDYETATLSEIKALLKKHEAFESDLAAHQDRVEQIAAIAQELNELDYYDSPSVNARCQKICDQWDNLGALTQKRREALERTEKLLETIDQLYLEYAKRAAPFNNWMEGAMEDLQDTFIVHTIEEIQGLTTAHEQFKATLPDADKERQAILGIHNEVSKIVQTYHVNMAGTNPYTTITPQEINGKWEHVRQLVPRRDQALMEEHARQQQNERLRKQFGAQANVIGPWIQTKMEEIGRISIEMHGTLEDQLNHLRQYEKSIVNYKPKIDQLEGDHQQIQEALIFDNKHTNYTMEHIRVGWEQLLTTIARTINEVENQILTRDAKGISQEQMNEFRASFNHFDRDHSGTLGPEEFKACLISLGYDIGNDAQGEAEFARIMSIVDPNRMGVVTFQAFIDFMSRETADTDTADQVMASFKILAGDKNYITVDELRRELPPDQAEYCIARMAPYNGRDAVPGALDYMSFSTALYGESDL

effect of a mutation on the interaction | Variant
decreasing interaction | K867R
disrupting interaction | K867A

Second part, the variant before the results:

Variant | effect of a mutation on the interaction
K866A;K867A | disrupting interaction
K866R | decreasing interaction
K866A | decreasing interaction
